Results published in paper PMC9482448 (Nature, 2021).

Biological target: human SMCT1 (monocarboxylate transporter of the SGLT family) (Homo sapiens (Human)., UniProt Q8N695)
Assay: cryo-EM structure

human SMCT1 (monocarboxylate transporter of the SGLT family), sequence (Q8N695 whole entry): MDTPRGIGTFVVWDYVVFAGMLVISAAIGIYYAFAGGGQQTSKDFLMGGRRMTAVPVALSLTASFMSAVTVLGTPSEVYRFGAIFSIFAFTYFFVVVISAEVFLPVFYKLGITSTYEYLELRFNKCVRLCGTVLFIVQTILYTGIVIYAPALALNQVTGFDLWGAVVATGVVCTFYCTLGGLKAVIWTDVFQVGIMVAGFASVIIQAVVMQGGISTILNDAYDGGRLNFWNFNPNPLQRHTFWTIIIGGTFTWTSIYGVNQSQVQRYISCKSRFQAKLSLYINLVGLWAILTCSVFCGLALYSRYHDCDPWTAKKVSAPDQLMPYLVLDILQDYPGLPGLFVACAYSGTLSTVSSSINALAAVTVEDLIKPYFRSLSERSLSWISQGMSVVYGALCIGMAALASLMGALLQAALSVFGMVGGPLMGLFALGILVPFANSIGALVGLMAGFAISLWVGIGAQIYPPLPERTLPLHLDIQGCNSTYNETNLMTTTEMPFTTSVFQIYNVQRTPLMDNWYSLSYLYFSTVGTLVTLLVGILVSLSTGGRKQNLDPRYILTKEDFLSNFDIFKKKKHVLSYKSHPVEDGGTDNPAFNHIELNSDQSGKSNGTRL

B1: nanobody Nb2 (binds SMCT1) (VHH)
VHH: QVQLQESGGGLVQAGGSLRLSCAASGNISTRAGMGWYRQAPGKEREFVASINWGAITNYADSVKGRFTISRDNAKNTVYLQMNSLKPEDTAVYYCAVEYKYGPQRSDTYYYWGQGTQVTVSS
- binding result: binds
